Test results taken from paper PMC10897178, “FANCJ DNA helicase is recruited to the replisome by AND-1 to ensure genome stability” (EMBO Reports, 2024).

Key:
[1] = molecular target: T1, Flag-tagged FANCJ wild type (human, UniProt Q9BX63 1-1249); test: pull-down; GST-SepB α-helix bundle (0.5 µg) on Glutathione Sepharose 4B beads, purified Flag-FANCJ (0.5 µg) added; 25 mM Tris-HCl pH 7.5, 150 mM NaCl, 0.1% Triton X-100, 4 °C; washes with 300 mM NaCl, 1% Triton X-100; Western blot; details: both partners purified
T1 construct: FANCJ (BRIP1, BACH1) DNA helicase, human, open reading frame; purified as full-length protein; Plasmid from Hisao Masai (Uno et al, 2012); also called FANCJ WT; Flag-FANCJ WT; source: HEK 293T, transiently transfected (pCSII-EF-MCS): in whole-cell extract or nuclear fraction; also purified (anti-Flag M2 agarose, 3x Flag-peptide elution)
T1 sequence (looked up): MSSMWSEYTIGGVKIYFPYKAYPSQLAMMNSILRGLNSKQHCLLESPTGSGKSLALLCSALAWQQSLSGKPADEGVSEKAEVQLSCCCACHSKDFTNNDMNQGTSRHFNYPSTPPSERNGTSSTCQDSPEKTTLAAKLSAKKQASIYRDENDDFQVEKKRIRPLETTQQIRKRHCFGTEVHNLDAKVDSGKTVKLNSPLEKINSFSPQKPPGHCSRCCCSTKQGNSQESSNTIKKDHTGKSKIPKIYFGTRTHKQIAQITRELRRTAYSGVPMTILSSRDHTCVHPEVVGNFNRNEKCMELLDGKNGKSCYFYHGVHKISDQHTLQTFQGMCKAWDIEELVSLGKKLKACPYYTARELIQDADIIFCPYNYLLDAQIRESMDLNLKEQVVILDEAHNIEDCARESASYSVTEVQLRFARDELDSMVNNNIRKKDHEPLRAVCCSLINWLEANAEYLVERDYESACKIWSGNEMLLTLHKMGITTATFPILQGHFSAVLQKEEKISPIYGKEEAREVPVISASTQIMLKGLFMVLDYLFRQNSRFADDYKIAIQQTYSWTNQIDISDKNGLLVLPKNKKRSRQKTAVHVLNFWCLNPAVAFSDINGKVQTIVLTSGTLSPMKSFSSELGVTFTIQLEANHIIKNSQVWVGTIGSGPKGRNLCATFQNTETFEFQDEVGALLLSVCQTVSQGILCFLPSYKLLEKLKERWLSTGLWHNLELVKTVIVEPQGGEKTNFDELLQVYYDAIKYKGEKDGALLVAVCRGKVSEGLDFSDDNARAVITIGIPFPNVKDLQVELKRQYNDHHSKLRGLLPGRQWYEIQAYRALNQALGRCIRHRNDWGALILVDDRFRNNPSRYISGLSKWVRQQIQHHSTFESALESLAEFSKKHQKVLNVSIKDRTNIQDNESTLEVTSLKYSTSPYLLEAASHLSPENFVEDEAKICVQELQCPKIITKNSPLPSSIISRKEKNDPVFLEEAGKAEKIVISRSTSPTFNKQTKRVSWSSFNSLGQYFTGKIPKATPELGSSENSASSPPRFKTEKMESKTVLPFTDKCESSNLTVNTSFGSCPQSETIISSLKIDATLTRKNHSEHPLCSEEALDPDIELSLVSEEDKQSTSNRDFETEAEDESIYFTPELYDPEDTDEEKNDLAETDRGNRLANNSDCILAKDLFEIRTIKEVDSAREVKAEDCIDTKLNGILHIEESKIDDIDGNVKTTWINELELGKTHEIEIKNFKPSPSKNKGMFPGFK

[2] = molecular target: T2, Flag-tagged FANCJ D736H (human, UniProt Q9BX63 1-1249, D736H); test: as above; details: both partners purified
T2 construct: FANCJ (BRIP1), human, full-length; missense variant found in invasive breast carcinoma; source: HEK 293T, transiently transfected, purified (anti-Flag M2 agarose)
T2 sequence (looked up): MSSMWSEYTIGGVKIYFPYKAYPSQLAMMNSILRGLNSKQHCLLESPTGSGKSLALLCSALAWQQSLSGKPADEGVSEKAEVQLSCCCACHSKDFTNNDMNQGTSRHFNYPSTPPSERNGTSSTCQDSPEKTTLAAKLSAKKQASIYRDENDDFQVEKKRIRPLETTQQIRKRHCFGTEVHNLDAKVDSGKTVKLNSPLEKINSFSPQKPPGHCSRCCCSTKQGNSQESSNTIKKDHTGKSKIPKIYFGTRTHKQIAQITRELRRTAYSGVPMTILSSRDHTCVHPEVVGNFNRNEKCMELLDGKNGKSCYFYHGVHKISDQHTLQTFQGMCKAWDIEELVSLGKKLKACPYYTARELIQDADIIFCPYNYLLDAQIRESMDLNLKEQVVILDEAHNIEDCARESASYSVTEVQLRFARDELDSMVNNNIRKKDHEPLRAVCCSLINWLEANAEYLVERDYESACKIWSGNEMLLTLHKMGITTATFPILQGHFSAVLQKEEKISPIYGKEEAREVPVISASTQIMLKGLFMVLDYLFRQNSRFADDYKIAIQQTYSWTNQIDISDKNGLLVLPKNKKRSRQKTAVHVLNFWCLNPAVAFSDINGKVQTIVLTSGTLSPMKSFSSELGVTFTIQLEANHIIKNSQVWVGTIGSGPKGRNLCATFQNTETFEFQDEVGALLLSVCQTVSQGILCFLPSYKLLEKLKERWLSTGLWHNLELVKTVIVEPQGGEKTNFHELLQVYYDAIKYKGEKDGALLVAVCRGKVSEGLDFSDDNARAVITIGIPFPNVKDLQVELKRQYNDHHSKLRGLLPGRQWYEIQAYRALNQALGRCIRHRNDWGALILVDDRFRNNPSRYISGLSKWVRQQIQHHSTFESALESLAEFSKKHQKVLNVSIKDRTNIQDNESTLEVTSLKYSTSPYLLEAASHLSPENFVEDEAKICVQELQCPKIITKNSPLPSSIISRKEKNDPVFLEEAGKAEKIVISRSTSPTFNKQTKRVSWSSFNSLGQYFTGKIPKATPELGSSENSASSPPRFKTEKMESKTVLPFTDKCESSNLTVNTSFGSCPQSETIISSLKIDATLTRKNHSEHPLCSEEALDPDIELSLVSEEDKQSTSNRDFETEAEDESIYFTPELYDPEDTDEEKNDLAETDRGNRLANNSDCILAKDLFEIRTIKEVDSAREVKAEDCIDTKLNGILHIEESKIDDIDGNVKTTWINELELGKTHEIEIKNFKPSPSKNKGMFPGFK

B1: GST-SepB α-helix bundle WT (domain or fragment, human, UniProt O75717 718-824, looked up)
chain: IATEKGQMEEQFWRSVIFHNHLDYLAKNGYEYEESTKNQATKEQQELLMKMLALSCKLEREFRCVELADLMTQNAVNLAIKYASRSRKLILAQKLSELAVEKAAELT
notes: AND-1 (WDHD1), human, α-helix bundle of the SepB domain, amino-acid residues 718-824; Cloned into pGEX-2T; also called GST-SepB α-helix bundle chimeric protein; source: E. coli Rosetta pLysS (DE3), purified (Glutathione Sepharose 4B)
binding result [1]: binds
binding result [2]: binds
